Experimental data from publication PMC2615626.

Biological target: Sulfolobus solfataricus 50S ribosomal subunit (S. solfataricus (endogenous in S. solfataricus cells)) (UniProt P55858)
Test: co-sedimentation

Sequence of UniProt P55858 (P55858 whole entry, looked up, tested part not stated): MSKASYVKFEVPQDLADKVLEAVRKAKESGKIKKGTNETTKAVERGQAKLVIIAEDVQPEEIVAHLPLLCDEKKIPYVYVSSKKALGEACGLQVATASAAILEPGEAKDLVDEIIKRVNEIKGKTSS

recombinant Sulfolobus solfataricus aIF6, His-tagged (natural protein)
stoichiometry N: 1 aIF6 per 50S
